The source of these data is paper PMC4650713, “Crystal structure of Bax bound to the BH3 peptide of Bim identifies important contacts for interaction” (Cell Death & Disease, 2015).

Data set [1] concerns the molecule itself. As to the kind of experiment: crystal structure; BidBH3, BimBH3mini or BidBH3mini with core/latch dimers of BaxI66AΔC21, BaxΔC26 or BaxΔC28; threefold molar excess of peptide; about 1 M tri-sodium citrate, 0.1 M sodium cacodylate pH 6.5, 277 K.
Data set [2] concerns the molecule itself. As to the kind of experiment: crystal structure; BimBH3:BaxΔC26; core/latch dimer induced by peptide, purified by SEC, threefold molar excess of peptide added; 0.1 M sodium bicine pH 9.0, 20% PEG6000, 277 K. On the technique in general: Size exclusion chromatography separates by hydrodynamic size, large species first.

B1: BaxΔC28 (domain or fragment)
chain: MDGSGEQPRGGGPTSSEQIMKTGALLLQGFIQDRAGRMGGEAPELALDPVPQDASTKKLSESLKRIGDELDSNMELQRMIAAVDTDSPREVFFRVAADMFSDGNFNWGRVVALFYFASKLVLKALSTKVPELIRTIMGWTLDFLRERLLGWIQDQGGWDGLLSYSS
notes: Bax truncated at the C terminus by 28 amino acids, with C62S and C126S; lacks F165; two extra residues (Ser–Ser) at the C terminus after intein digestion, a cloning artefact; In the crystal it stands as a core/latch dimer; also called Bax C62S C126S truncated at the C terminus by 28 amino acids
For B1, in data set [1], the stoichiometry N (commonly the number of molecules, sites or subunits per partner or assembly) came to 2.

B2: BaxΔC26 (domain or fragment)
chain: MDGSGEQPRGGGPTSSEQIMKTGALLLQGFIQDRAGRMGGEAPELALDPVPQDASTKKLSESLKRIGDELDSNMELQRMIAAVDTDSPREVFFRVAADMFSDGNFNWGRVVALFYFASKLVLKALSTKVPELIRTIMGWTLDFLRERLLGWIQDQGGWDGLLSYFGSS
notes: Bax truncated at the C terminus by 26 amino acids, with C62S and C126S; C terminus G166; two extra residues (Ser–Ser) at the C terminus after intein digestion, a cloning artefact; In the crystals it stands as a domain-swapped core/latch dimer, each chain with one BH3 peptide; also called Bax C62S C126S truncated at the C terminus by 26 amino acids
On to B2, for which, in data set [2], the “stoichiometry N” value came to 2.

B3: BaxI66AΔC21 (domain or fragment, UniProt Q07812 1-171, looked up)
chain: MDGSGEQPRGGGPTSSEQIMKTGALLLQGFIQDRAGRMGGEAPELALDPVPQDASTKKLSESLKRAGDELDSNMELQRMIAAVDTDSPREVFFRVAADMFSDGNFNWGRVVALFYFASKLVLKALSTKVPELIRTIMGWTLDFLRERLLGWIQDQGGWDGLLSYFGTPTWQ
notes: BaxΔC21 (Bax truncated at the C terminus by 21 amino acids, with C62S and C126S) with I66A; Called a BaxΔC21 mutant; In the crystal it stands as a core/latch dimer; also called BaxΔC21 mutant I66A
Take B3: the “stoichiometry N” value in data set [1] was found to be 2.
